Measured values published in article PMC12243203.

Target: recombinant His-EtSERPIN1 protein (Eimeria tenella)

recombinant His-tag GgANXA2 protein (from UniProt P17785 1-339) (natural protein)
adhesion rate to DF-1 cells of yeast cells displaying EtSERPIN1 that were pre-incubated with recombinant GgANXA2 protein (PBS group: 26.75%): 44.3%
